According to US20190233519A1 (published 2019):
Where two headings read alike, the source gives them in different places.

Legend:
CTLA-4-His protein [1] = molecular target: T1, CTLA-4-His protein (UniProt P16410 37-161); assay: SPR
[2] = molecular target: T2, human CTLA-4 expressed on CHO cells (UniProt P16410 37-223); assay: FACS cell binding
[3] = molecular target: T3, biotin-labeled hCTLA-4/Fc protein (UniProt P16410 37-161, biotin label in the FACS competition assays (sites not given)); assay: FACS ligand competition
T3 sequence (P16410 37-161): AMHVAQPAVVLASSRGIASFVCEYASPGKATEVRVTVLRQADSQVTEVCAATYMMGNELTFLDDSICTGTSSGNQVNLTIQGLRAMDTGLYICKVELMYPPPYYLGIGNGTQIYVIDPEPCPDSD

PD-1-His protein [4] = molecular target: T4, PD-1-His protein (UniProt Q15116 25-167); assay: SPR
T4 sequence (Q15116 25-167): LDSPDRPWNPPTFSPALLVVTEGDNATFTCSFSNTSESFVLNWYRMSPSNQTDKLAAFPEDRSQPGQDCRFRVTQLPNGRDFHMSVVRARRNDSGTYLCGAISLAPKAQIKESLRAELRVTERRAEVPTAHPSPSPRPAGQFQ

[5] = molecular target: T5, human PD-1 expressed on CHO cells (human, UniProt Q15116 25-288); assay: FACS cell binding
T5 sequence (Q15116 25-288): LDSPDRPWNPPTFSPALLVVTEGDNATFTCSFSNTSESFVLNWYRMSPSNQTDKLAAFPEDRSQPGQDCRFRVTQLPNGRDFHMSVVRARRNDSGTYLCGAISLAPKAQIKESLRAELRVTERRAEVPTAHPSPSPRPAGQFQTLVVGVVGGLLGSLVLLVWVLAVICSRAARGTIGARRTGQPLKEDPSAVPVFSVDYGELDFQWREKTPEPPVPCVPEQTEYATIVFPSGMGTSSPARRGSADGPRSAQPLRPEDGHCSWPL

[6] = molecular target: hPD-1-Fc fusion protein having a biotin label (human, UniProt Q15116 25-167, biotin label (sites not given)); assay: FACS ligand competition
Chain of hPD-1-Fc fusion protein having a biotin label (Q15116 25-167): as the sequence (Q15116 25-167) above

[7] = molecular target: T2, human CTLA-4 expressed on CHO cells; assay: FACS cell binding; remark: listed apart in the source
CTLA-4-His protein [8] = molecular target: T1, CTLA-4-His protein; assay: SPR; remark: listed apart in the source
[9] = molecular target: T3, biotin-labeled hCTLA-4/Fc protein; assay: FACS ligand competition; remark: listed apart in the source
[10] = molecular target: T3, biotin-labeled hCTLA-4/Fc protein; assay: FACS ligand competition (B7-1 cells)
CTLA-4/Fc = assay: SPR
[11] = molecular target: T5, human PD-1 expressed on CHO cells; assay: FACS ligand competition (hPD-L1 Fc)
PD-1-His protein [12] = molecular target: T4, PD-1-His protein; assay: SPR; remark: listed apart in the source
CTLA-4-His protein [13] = molecular target: T1, CTLA-4-His protein; assay: SPR; remark: listed apart in the source
[14] = molecular target: T3, biotin-labeled hCTLA-4/Fc protein; assay: FACS ligand competition (B7-1 cells); remark: listed apart in the source

T2 sequence (P16410 37-223): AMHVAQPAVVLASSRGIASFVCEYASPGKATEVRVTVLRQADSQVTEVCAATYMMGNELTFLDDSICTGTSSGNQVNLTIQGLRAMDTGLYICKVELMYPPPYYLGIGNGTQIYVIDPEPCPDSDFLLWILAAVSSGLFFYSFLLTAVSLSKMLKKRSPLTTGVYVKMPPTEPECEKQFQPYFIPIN
T1 sequence (P16410 37-161): as the sequence (P16410 37-161) above

Binder | Kd (CTLA-4-His protein [1]) | EC50 [2] | IC50 [3] | Kd (PD-1-His protein [4]) | EC50 [5] | IC50 [6] | IC50 [9] | further results
AS07189 HCAb (Fc fusion) heavy: QVQLVESGGGSVQAGGSLRLSCAASGDSPSVNYMGWFRRAPEKQREQREEVASIYPTGGTFYTDSVKGRFTISRDNAKNTLYLQMTALKPEDTAMYYCAAGKWGTDYWGQGTQVIVSS | – | – | – | – | – | – | 11.9 nM | EC50 [7]: 6.8 nM; Kd (CTLA-4-His protein [8]): 3 nM
A36922 HCAb (Fc fusion) heavy: QVQLVESGGGLVQAGGSLRLSCAASGRLSRTFTMGWYRQAPGKQRDLVASITTSGSTNYADSVKGRFTISRDNAKNTVILQMNSLVPEDTAVYYCRFLSASTAAWGQGTQVTIST | – | – | – | – | – | – | 14.1 nM | IC50 [10]: 14.1 nM
A36566 HCAb (Fc fusion) heavy: EVQLVESGGGLVQVGDSLRLSCAASGRSFENYAIGWFRQAPGKEREFVATISWIPRTAYSTTYYADSVKGRFTISGDNSKNTVYLQMTSLKPEDTAVYYCAAGGATGPLALDSHYGYWGQGTQVTVSS | – | – | – | – | – | – | 6.6 nM | IC50 [10]: 6.6 nM
A34311 sdAb (VHH) VHH: QVKLEESGGGLVLPGESLRLSCEASGRTITTITMGWFRQAPGKERQFVASHSWTDNNPYYADSVKGRFIISRDNAGNRVYLQMHSLEPEDTAVYYCAATARRSFVGRQWYTEARQYDYWGQGTQVTVSS | – | – | – | – | – | – | – | Kd (CTLA-4/Fc): 4.96 nM
AS02640 sdAb (VHH) VHH: QVQLVESGGGVVQPGRSLRLSCAASGRTITTITMGWFRQAPGKGLEFVASHSWTDNNPYYADSVKGRFIISRDNSKNRLYLQMNSLRAEDTAVYYCAATARRSFVGRQWYTEARQYDYWGQGTLVTVSS | – | – | – | – | – | – | – | Kd (CTLA-4/Fc): 2.95 nM
AS07014 HCAb (Fc fusion) heavy: QVHLVESGGGSVQAGGSLRLSCAASGYTYSRHCLGWFRQTPGKEREAVATIDSDGSTSYADSVKGRFTISSDNAKNTLYLQMNSLKPEDTAMYYCAIGPNPRYCSGAPNTRGAEHYFGYWAQGTQVTVSS | – | – | – | – | – | – | 12.3 nM | EC50 [7]: 15.3 nM; Kd (CTLA-4-His protein [8]): 1.1 nM

The next lines start with results.

Kd (CTLA-4-His protein [1]) | EC50 [2] | IC50 [3] | Kd (PD-1-His protein [4]) | EC50 [5] | IC50 [6] | IC50 [9] | Binder | further results
6.6 nM | 2.7 nM | 7.1 nM | 8.1 nM | 1.7 nM | 4.8 nM | – | BCP-78 (A34311VH11-mutated hIgG1 hinge-Opdivo) (bispecific antibody) heavy: EVQLVESGGGVVQPGRSLRLSCAASGRTITTITMGWFRQAPGKGREFVASHSWTDNNPYYADSVKGRFTISRDNAKNTLYLQMNSLRPEDTAVYYCAATARRSFVGRQWYTEARQYDYWGQGTLVTVSSEPKSSDKTHTSPPSPQVQLVESGGGVVQPGRSLRLDCKASGITFSNSGMHWVRQAPGKGLEWVAVIWYDGSKRYYADSVKGRFTISRDNSKNTLFLQMNSLRAEDTAVYYCATNDDYWGQGTLVTVSSASTKGPSVFPLAPCSRSTSESTAALGCLVKDYFPEPVTVSWNSGALTSGVHTFPAVLQSSGLYSLSSVVTVPSSSLGTKTYTCNVDHKPSNTKVDKRVESKYGPPCPPCPAPEFLGGPSVFLFPPKPKDTLMISRTPEVTCVVVDVSQEDPEVQFNWYVDGVEVHNAKTKPREEQFNSTYRVVSVLTVLHQDWLNGKEYKCKVSNKGLPSSIEKTISKAKGQPREPQVYTLPPSQEEMTKNQVSLTCLVKGFYPSDIAVEWESNGQPENNYKTTPPVLDSDGSFFLYSRLVDKSRWQEGNVFSCSVMHEALHNHYTQKSLSLSLGK light: not shown | –
28 nM | – | – | – | – | – | – | BCP-2 (BCP-K311) (Keytruda-9GS-A34311) (bispecific antibody) heavy: not shown light: EIVLTQSPATLSLSPGERATLSCRASKGVSTSGYSYLHWYQQKPGQAPRLLIYLASYLESGVPARFSGSGSGTDFTLTISSLEPEDFAVYYCQHSRDLPLTFGGGTKVEIKRTVAAPSVFIFPPSDEQLKSGTASVVCLLNNFYPREAKVQWKVDNALQSGNSQESVTEQDSKDSTYSLSSTLTLSKADYEKHKVYACEVTHQGLSSPVTKSFNRGEC | IC50 [11]: 16.5 nM; Kd (PD-1-His protein [12]): 7.63 nM; Kd (CTLA-4-His protein [13]): 28.4 nM
7.5 nM | 3 nM | 11.5 nM | 7.5 nM | 2.2 nM | 1.1 nM | – | BCP-73 (A34311VH11-mutated hIgG1 hinge-Keytruda) (bispecific antibody) heavy: not shown light: EIVLTQSPATLSLSPGERATLSCRASKGVSTSGYSYLHWYQQKPGQAPRLLIYLASYLESGVPARFSGSGSGTDFTLTISSLEPEDFAVYYCQHSRDLPLTFGGGTKVEIKRTVAAPSVFIFPPSDEQLKSGTASVVCLLNNFYPREAKVQWKVDNALQSGNSQESVTEQDSKDSTYSLSSTLTLSKADYEKHKVYACEVTHQGLSSPVTKSFNRGEC | –
4 nM | 3 nM | 11.7 nM | 2.2 nM | 1.6 nM | 1.5 nM | – | BCP-75 (AS07189TKDVH11-mutated hIgG1 hinge-Keytruda) (bispecific antibody) heavy: not shown light: EIVLTQSPATLSLSPGERATLSCRASKGVSTSGYSYLHWYQQKPGQAPRLLIYLASYLESGVPARFSGSGSGTDFTLTISSLEPEDFAVYYCQHSRDLPLTFGGGTKVEIKRTVAAPSVFIFPPSDEQLKSGTASVVCLLNNFYPREAKVQWKVDNALQSGNSQESVTEQDSKDSTYSLSSTLTLSKADYEKHKVYACEVTHQGLSSPVTKSFNRGEC | –
13 nM | – | – | – | – | – | – | BCP-311K (A34311-9GS-Keytruda) (bispecific antibody) heavy: not shown light: EIVLTQSPATLSLSPGERATLSCRASKGVSTSGYSYLHWYQQKPGQAPRLLIYLASYLESGVPARFSGSGSGTDFTLTISSLEPEDFAVYYCQHSRDLPLTFGGGTKVEIKRTVAAPSVFIFPPSDEQLKSGTASVVCLLNNFYPREAKVQWKVDNALQSGNSQESVTEQDSKDSTYSLSSTLTLSKADYEKHKVYACEVTHQGLSSPVTKSFNRGEC | EC50 [14]: 41.9 nM; IC50 [11]: 33.7 nM; Kd (PD-1-His protein [12]): 11.1 nM; Kd (CTLA-4-His protein [13]): 13 nM
2.6 nM | 3.9 nM | 17.2 nM | 2.5 nM | 1.6 nM | 2.6 nM | – | BCP-74 (AS07014VH11-mutated hIgG1 hinge-Keytruda) (bispecific antibody) heavy: not shown light: EIVLTQSPATLSLSPGERATLSCRASKGVSTSGYSYLHWYQQKPGQAPRLLIYLASYLESGVPARFSGSGSGTDFTLTISSLEPEDFAVYYCQHSRDLPLTFGGGTKVEIKRTVAAPSVFIFPPSDEQLKSGTASVVCLLNNFYPREAKVQWKVDNALQSGNSQESVTEQDSKDSTYSLSSTLTLSKADYEKHKVYACEVTHQGLSSPVTKSFNRGEC | –
